Results from patent US20230051847A1 (Johns Hopkins, published 2023).

Key:
[1] = biological target: T1, RAS Q61WT[55-64] pHLA-A1 (human); test: ELISA, scDb at 10 nM on titrated biotinylated pHLA-A1 on streptavidin plate; protein L, anti-protein L HRP
T1 construct: also called Q61WT pHLA-A1; H/K/N RAS WT(55-64) peptide on HLA-A1

[2] = biological target: T1, RAS Q61WT[55-64] pHLA-A1; test: as above; remark: listed apart in the source
[3] = biological target: T1, RAS Q61WT[55-64] pHLA-A1; test: flow cytometry: scFv phage supernatant on peptide-pulsed SigM5 cells (HLA-A1+), median fluorescence intensity
[4] = biological target: T1, RAS Q61WT[55-64] pHLA-A1; test: flow cytometry, phage on peptide-pulsed SigM5 cells; anti-M13, anti-rabbit PE
[5] = biological target: T1, RAS Q61WT[55-64] pHLA-A1; test: as above; remark: listed apart in the source
[6] = biological target: T2, CHD4 peptide (…) on HLA-A1 (human); test: co-culture of peptide-pulsed SigM5 cells with T cells and L2-U scDb; IFNγ release
T2 construct: whole, on cells; on peptide-pulsed SigM5 cells

[7] = biological target: T1, RAS Q61WT[55-64] pHLA-A1; test: ELISA, scDb at 10 nM on titrated biotinylated pHLA-A1 on streptavidin plate; protein L, anti-protein L HRP; remark: listed apart in the source
[8] = biological target: p53^WT/HLA-A*02:01 pHLA (human); test: flow cytometry: scFv phage supernatant on peptide-pulsed T2 cells (HLA-A2+), median fluorescence intensity
[9] = biological target: T1, RAS Q61WT[55-64] pHLA-A1; test: flow cytometry, phage on peptide-pulsed SigM5 cells; anti-M13, anti-rabbit PE; remark: listed apart in the source
[10] = biological target: p53^WT/HLA-A*02:01 pHLA (human); test: ELISA, scDb on biotinylated pHLA on streptavidin plate; protein L, anti-protein L HRP

B1: R6-U scDb (bispecific antibody)
chain: DIQMTQSPSSLSASVGDRVTITCRASQDVNTAVAWYQQKPGKAPKLLIYSASFLYSGVPSRFSGSRSGTDFTLTISSLQPEDFATYYCQQYSNYPLTFGQGTKVEIKGGGGSEVQLQQSGPELVKPGASMKISCKASGYSFTGYTMNWVKQSHGKNLEWMGLINPYKGVSTYNQKFKDKATLTVDKSSSTAYMELLSLTSEDSAVYYCARSGYYGDSDWYFDVWGAGTTVTVSSGGGGSGGGGSGGGGSDIQMTQTTSSLSASLGDRVTISCRASQDIRNYLNWYQQKPDGTVKLLIYYTSRLHSGVPSKFSGSGSGTDYSLTISNLEQEDIATYFCQQGNTLPWTFAGGTKLEIKGGGGSEVQLVESGGGLVQPGGSLRLSCAASGFNVFYGSMHWVRQAPGKGLEWVAFIGPDSTYTYYADSVKGRFTISADTSKNTAYLQMNSLRAEDTAVYYCSRDLGSAYAMDYWGQGTLVTVSSHHHHHH
B1: no binding (tested: 10 ug/mL coated pHLA-A1, scDb at 10 nM) [1].

B2: H1-U scDb (bispecific antibody)
chain: DIQMTQSPSSLSASVGDRVTITCRASQDVNTAVAWYQQKPGKAPKLLIYSASFLYSGVPSRFSGSRSGTDFTLTISSLQPEDFATYYCQQVIYYPFTFGQGTKVEIKGGGGSEVQLQQSGPELVKPGASMKISCKASGYSFTGYTMNWVKQSHGKNLEWMGLINPYKGVSTYNQKFKDKATLTVDKSSSTAYMELLSLTSEDSAVYYCARSGYYGDSDWYFDVWGAGTTVTVSSGGGGSGGGGSGGGGSDIQMTQTTSSLSASLGDRVTISCRASQDIRNYLNWYQQKPDGTVKLLIYYTSRLHSGVPSKFSGSGSGTDYSLTISNLEQEDIATYFCQQGNTLPWTFAGGTKLEIKGGGGSEVQLVESGGGLVQPGGSLRLSCAASGFNLYSYAIHWVRQAPGKGLEWVALLYPDYGVTSYADSVKGRFTISADTSKNTAYLQMNSLRAEDTAVYYCSRYRSYEYSVSSYSYSAMDYWGQGTLVTVSSHHHHHH
B2: no binding (tested: 10 ug/mL coated pHLA-A1, scDb at 10 nM) [2].

B3: H/K/N RAS Q61H_A1_cl10 (scFv)
scFv: DIQMTQSPSSLSASVGDRVTITCRASQDVNTAVAWYQQKPGKAPKLLIYSASFLYSGVPSRFSGSRSGTDFTLTISSLQPEDFATYYCQQTYYTPVTFGQGTKVEIKRTGGGSGGGGSGGGASEVQLVESGGGLVQPGGSLRLSCAASGFNISHYVMHWVRQAPGKGLEWVADFYPHSDSTYYADSVKGRFTISADTSKNTAYLQMNSLRAEDTAVYYCSRYQSYSFDYWGQGTLVTVSS
B3: no binding [3].

B4: H/K/N RAS Q61L_A1_cl2 (L2) (scFv)
scFv: DIQMTQSPSSLSASVGDRVTITCRASQDVNTAVAWYQQKPGKAPKLLIYSASFLYSGVPSRFSGSRSGTDFTLTISSLQPEDFATYYCQQAVSYPWTFGQGTKVEIKRTGGGSGGGGSGGGASEVQLVESGGGLVQPGGSLRLSCAASGFNISSSGIHWVRQAPGKGLEWVAMVYGGSGYTNYADSVKGRFTISADTSKNTAYLQMNSLRAEDTAVYYCSRWAHYSAYMDYWGQGTLVTVSS
notes: also called Q61L clone L2; L2 scFv
B4: no binding (tested: single dose (50 µL phage supernatant)) [4].

B5: H/K/N RAS Q61H_A1_cl1 (H1) (scFv)
scFv: DIQMTQSPSSLSASVGDRVTITCRASQDVNTAVAWYQQKPGKAPKLLIYSASFLYSGVPSRFSGSRSGTDFTLTISSLQPEDFATYYCQQVIYYPFTFGQGTKVEIKRTGGGSGGGGSGGGASEVQLVESGGGLVQPGGSLRLSCAASGFNLYSYAIHWVRQAPGKGLEWVALLYPDYGVTSYADSVKGRFTISADTSKNTAYLQMNSLRAEDTAVYYCSRYRSYEYSVSSYSYSAMDYWGQGTLVTVSS
notes: also called Q61H clone H1; H1 scFv
B5: no binding (tested: single dose (50 µL phage supernatant)) [5].

B6: H/K/N RAS Q61H_A1_cl4 (scFv)
scFv: DIQMTQSPSSLSASVGDRVTITCRASQDVNTAVAWYQQKPGKAPKLLIYSASFLYSGVPSRFSGSRSGTDFTLTISSLQPEDFATYYCQQYDYYPFTFGQGTKVEIKRTGGGSGGGGSGGGASEVQLVESGGGLVQPGGSLRLSCAASGFNVFGYAIHWVRQAPGKGLEWVAEVYPGYDVTSYADSVKGRFTISADTSKNTAYLQMNSLRAEDTAVYYCSRYSWAGAFDYWGQGTLVTVSS
B6: no binding [3].

B7: L2-U scDb (bispecific antibody)
chain: DIQMTQSPSSLSASVGDRVTITCRASQDVNTAVAWYQQKPGKAPKLLIYSASFLYSGVPSRFSGSRSGTDFTLTISSLQPEDFATYYCQQAVSYPWTFGQGTKVEIKGGGGSEVQLQQSGPELVKPGASMKISCKASGYSFTGYTMNWVKQSHGKNLEWMGLINPYKGVSTYNQKFKDKATLTVDKSSSTAYMELLSLTSEDSAVYYCARSGYYGDSDWYFDVWGAGTTVTVSSGGGGSGGGGSGGGGSDIQMTQTTSSLSASLGDRVTISCRASQDIRNYLNWYQQKPDGTVKLLIYYTSRLHSGVPSKFSGSGSGTDYSLTISNLEQEDIATYFCQQGNTLPWTFAGGTKLEIKGGGGSEVQLVESGGGLVQPGGSLRLSCAASGFNISSSGIHWVRQAPGKGLEWVAMVYGGSGYTNYADSVKGRFTISADTSKNTAYLQMNSLRAEDTAVYYCSRWAHYSAYMDYWGQGTLVTVSSHHHHHH
notes: also called L2 single chain diabody; H/K/N RAS Q61L(55-64)-A1 cl.2 UCHT1 scDb
B7: no binding (tested: 1 nM scDb) [6]; no binding (tested: 10 ug/mL coated pHLA-A1, scDb at 10 nM) [7].

B8: p53_R175H_A2_cl16 (scFv)
scFv: DIQMTQSPSSLSASVGDRVTITCRASQDVNTAVAWYQQKPGKAPKLLIYSASFLYSGVPSRFSGSRSGTDFTLTITSLQPEDFATYYCQQQWSSPDTFGQGTKVEIKRTGGGSGGGGSGGGASEVQLVESGGGLVQPGGSLRLSCAASGFNLSYYDMHWVRQAPGKGLEWVALIYYGSGYTYYADSVKGRFTISADTSKNTAYLQMNSLRAEDTAVYYCSRGSYVSGMDYWGQGTLVTVSS
B8: no binding [8].

B9: p53_R175H_A2_cl15 (scFv)
scFv: DIQMTQSPSSLSASVGDRVTITCRASQDVNTAVAWYQQKPGKAPKLLIYSASFLYSGVPSRFSGSRSGTDFTLTISSLQPEDFATYYCQQSSYYPNTFGQGTKVEIKRTGGGSGGGGSGGGASEVQLVESGGGLVQPGGSLRLSCAASGFNLYQRDMHWVRQAPGKGLEWVAGLLYGSDHTEYADSVKGRFTISADTSKNTAYLQMNSLRAEDTAVYYCSRATYEEAFDYWGQGTLVTVSS
B9: no binding [8].

B10: H/K/N RAS Q61H_A1_cl3 (scFv)
scFv: DIQMTQSPSSLSASVGDRVTITCRASQDVNTAVAWYQQKPGKAPKLLIYSASFLYSGVPSRFSGSRSGTDFTLTISSLQPEDFATYYCQQSIYYPFTFGQGTKVEIKRTGGGSGGGGSGGGASEVQLVESGGGLVQPGGSLRLSCAASGFNLYTSQMHWVRQAPGKGLEWVALVYPGYYVTSYADSVKGRFTISADTSKNTAYLQMNSLRAEDTAVYYCSRGAYYYSSAMDYWGQGTLVTVSS
B10: no binding [3].

B11: H/R/N RAS Q61R_A1_cl6 (R6) (scFv)
scFv: DIQMTQSPSSLSASVGDRVTITCRASQDVNTAVAWYQQKPGKAPKLLIYSASFLYSGVPSRFSGSRSGTDFTLTISSLQPEDFATYYCQQYSNYPLTFGQGTKVEIKRTGGGSGGGGSGGGASEVQLVESGGGLVQPGGSLRLSCAASGFNVFYGSMHWVRQAPGKGLEWVAFIGPDSTYTYYADSVKGRFTISADTSKNTAYLQMNSLRAEDTAVYYCSRDLGSAYAMDYWGQGTLVTVSS
notes: also called Q61R clone R6; R6 scFv
B11: no binding (tested: single dose (50 µL phage supernatant)) [9].

B12: H/K/N RAS Q61H_A1_cl2 (scFv)
scFv: DIQMTQSPSSLSASVGDRVTITCRASQDVNTAVAWYQQKPGKAPKLLIYSASFLYSGVPSRFSGSRSGTDFTLTISSLQPEDFATYYCQQYDYYPFTFGQGTKVEIKRTGGGSGGGGSGGGASEVQLVESGGGLVQPGGSLRLSCAASGFNISYEAMHWVRQAPGKGLEWVALIYPNHGITSYADSVKGRFTISADTSKNTAYLQMNSLRAEDTAVYYCSRYSSSAMDYWGQGTLVTVSS
B12: no binding [3].

B13: p53_R175H_A2_cl6 (scFv)
scFv: DIQMTQSPSSLSASVGDRVTITCRASQDVNTAVAWYQQKPGKAPKLLIYSASFLYSGVPSRFSGSRSGTDFTLTISSLQPEDFATYYCQQQSSTPVTFGQGTKVEIKRTGGGSGGGGSGGGASEVQLVESGGGLVQPGGSLRLSCAASGFNVYQSDMHWVRQAPGKGLEWVATIWPYSGYTYYADSVKGRFTISADTSKNTAYLQMNSLRAEDTAVYYCSRDGMYAFDYWGQGTLVTVSS
B13: no binding [8].

B14: H20-UCHT1-scDb (bispecific antibody)
chain: DIQMTQSPSSLSASVGDRVTITCRASQDVNTAVAWYQQKPGKAPKLLIYSASFLYSGVPSRFSGSRSGTDFTLTISSLQPEDFATYYCQQSNAYPITFGQGTKVEIKGGGGSEVQLQQSGPELVKPGASMKISCKASGYSFTGYTMNWVKQSHGKNLEWMGLINPYKGVSTYNQKFKDKATLTVDKSSSTAYMELLSLTSEDSAVYYCARSGYYGDSDWYFDVWGAGTTVTVSSGGGGSGGGGSGGGGSDIQMTQTTSSLSASLGDRVTISCRASQDIRNYLNWYQQKPDGTVKLLIYYTSRLHSGVPSKFSGSGSGTDYSLTISNLEQEDIATYFCQQGNTLPWTFAGGTKLEIKGGGGSEVQLVESGGGLVQPGGSLRLSCAASGFNLNSYYMHWVRQAPGKGLEWVAMIIPGYGYTNYADSVKGRFTISADTSKNTAYLQMNSLRAEDTAVYYCSRSYYMYMDYWGQGTLVTVSSHHHHHH
notes: single-chain diabody of H20 with the anti-CD3 scFv UCHT1; also called H20-scDb
B14: binds [10].
